# Data taken from patent US20230265198A1 (TWIST BIOSCIENCE, published 2023).
# Changes are numbered by the printed parent chain.
# B1: NRP1-87 (VHH)
# VHH: EVQLVESGGGLVQPGGSLRLSCAASGRIFTMGWFRQAPGKEREFVASITTDGNTLYADSVKGRFTISADNSKNTAYLQMNSLKPEDTAVYYCARWVGASAYHYGMDVWGQGTLVTVSS
# B2: NRP1-88 (VHH)
# VHH: EVQLVESGGGLVQPGGSLRLSCAASGGIFSRYDMGWFRQAPGKEREFVATITSTGDTYADSVKGRFTISADNSKNTAYLQMNSLKPEDTAVYYCARLGGNSEYYYYYGMDVWGQGTLVTVSS
# B3: NRP1-89 (VHH)
# VHH: EVQLVESGGGLVQPGGSLRLSCAASGINFSRYGMGWFRQAPGKEREWVSAISSGGGSITTYADSVKGRFTISADNSKNTAYLQMNSLKPEDTAVYYCARHNSGWHFDYWGQGTLVTVSS
# B4: NRP1-90 (VHH)
# VHH: EVQLVESGGGLVQPGGSLRLSCAASGGIFSINDMGWFRQAPGKEREFVARITSGGSTNYADSVKGRFTISADNSKNTAYLQMNSLKPEDTAVYYCAKADYYDSSDFDSWGQGTLVTVSS
# B5: NRP1-17 (VHH)
# VHH: EVQLVESGGGLVQPGGSLRLSCAASGRFSRINSMGWFRQAPGKERELVAAIMWSGGSTKYADSVKGRFTISADNSKNTAYLQMNSLKPEDTAVYYCAAGSPSRLVNMWQYNWGQGTLVTVSS
# B6: NRP1-41 (VHH)
# VHH: B5 VHH with L47S, M52S, S54N, T58I, K59Y
# B7: NRP1-91 (VHH)
# VHH: EVQLVESGGGLVQPGGSLRLSCAASGNIFINNAMGWFRQAPGKERELVAAITSSSGRRWYADSVKGRFTISADNSKNTAYLQMNSLKPEDTAVYYCAAGSPSRLVNMWQYNWGQGTLVTVSS
# B8: NRP1-92 (VHH)
# VHH: EVQLVESGGGLVQPGGSLRLSCAASGLLFSSYDMGWFRQAPGKEREFVAAITSGGRKNYADSVKGRFTISADNSKNTAYLQMNSLKPEDTAVYYCARYDYSGGLTFDYWGQGTLVTVSS
# B9: NRP1-93 (VHH)
# VHH: EVQLVESGGGLVQPGGSLRLSCAASGIPFRSRTMGWFRQAPGKEREFVATINTGGGTYADSVKGRFTISADNSKNTAYLQMNSLKPEDTAVYYCARHGDTYYYGSGTVRSLDYWGQGTLVTVSS
# B10: NRP1-94 (VHH)
# VHH: EVQLVESGGGLVQPGGSLRLSCAASGRTFSTYASMGWFRQAPGKEREFVARIWPGGSTYYADSVKGRFTISADNSKNTAYLQMNSLKPEDTAVYYCARQFGAWLGEVVGPMDVWGQGTLVTVSS
# B11: NRP1-50 (VHH)
# VHH: EVQLVESGGGLVQPGGSLRLSCAASGRTFNRYPMGWFRQAPGKEREWVAAISTSGGSTYYADSVKGRFTISADNSKNTAYLQMNSLKPEDTAVYYCAIHTSREIWGQGTLVTVSS
# B12: NRP1-45 (VHH)
# VHH: B11 VHH with I51A, S52H, T53W, S57R, T58M, Y59W
# B13: NRP1-95 (VHH)
# VHH: B11 VHH with V48I, A49S, I51L, S52A, T53P, S54G, S57N, T58R
# B14: NRP1-97 (VHH)
# VHH: EVQLVESGGGLVQPGGSLRLSCAASGFDFDNFDDYAMGWFRQAPGKEREFVAEIGWRDTTLYADSVKGRFTISADNSKNTAYLQMNSLKPEDTAVYYCARGRYDLSDFDYWGQGTLVTVSS
# B15: NRP1-98 (VHH)
# VHH: EVQLVESGGGLVQPGGSLRLSCAASGLNLSRLDMGWFRQAPGKEREFVAAISWSGDSTNYADSVKGRFTISADNSKNTAYLQMNSLKPEDTAVYYCARIHKAPYYGMDVWGQGTLVTVSS
# B16: NRP1-101 (VHH)
# VHH: EVQLVESGGGLVQPGGSLRLSCAASGRNRYGMGWFRQAPGKEREFVAAISRSGGSTNYADSVKGRFTISADNSKNTAYLQMNSLKPEDTAVYYCAKGGAQNYTWGQGTLVTVSS
# B17: NRP1-102 (VHH)
# VHH: EVQLVESGGGLVQPGGSLRLSCAASGGTIRTMGWFRQAPGKEREFVATISWSGALTHYADSVKGRFTISADNSKNTAYLQMNSLKPEDTAVYYCAHRDNFWSAYYDFWGQGTLVTVSS
# B18: NRP1-103 (VHH)
# VHH: EVQLVESGGGLVQPGGSLRLSCAASGRTLSRYTMGWFRQAPGKERELVATITSGGSTGYADSVKGRFTISADNSKNTAYLQMNSLKPEDTAVYYCAKDKWGVRGEFDSWGQGTLVTVSS
# B19: NRP1-104 (VHH)
# VHH: EVQLVESGGGLVQPGGSLRLSCAASGFSFDDYVMGWFRQAPGKEREFVARISTSGSWTGYADSVKGRFTISADNSKNTAYLQMNSLKPEDTAVYYCAINYSPGYPDHWGQGTLVTVSS
# B20: NRP1-107 (VHH)
# VHH: EVQLVESGGGLVQPGGSLRLSCAASGRTFSNSGMGWFRQAPGKEREFVAAISWNGGTTNYADSVKGRFTISADNSKNTAYLQMNSLKPEDTAVYYCATLGGTVSGSHWSYFYYMDVWGQGTLVTVSS
# B21: NRP1-108 (VHH)
# VHH: EVQLVESGGGLVQPGGSLRLSCAASGNIPPINAMGWFRQAPGKEREWVATITSGGSTTYADSVKGRFTISADNSKNTAYLQMNSLKPEDTAVYYCARDRYFYDTSGNQRSSWFDPWGQGTLVTVSS
# B22: NRP1-109 (VHH)
# VHH: EVQLVESGGGLVQPGGSLRLSCAASGRTSRSYDMGWFRQAPGKEREFVASIDQSGESTAYADSVKGRFTISADNSKNTAYLQMNSLKPEDTAVYYCARADYYGSGSYFDYWGQGTLVTVSS
# B23: NRP1-110 (VHH)
# VHH: EVQLVESGGGLVQPGGSLRLSCAASGRTFSNYSMGWFRQAPGKEREFVASIWWTFDAPYYADSVKGRFTISADNSKNTAYLQMNSLKPEDTAVYYCAKWDGLGTLWGQGTLVTVSS
# B24: NRP1-111 (VHH)
# VHH: EVQLVESGGGLVQPGGSLRLSCAASGIAFRIRTMGWFRQAPGKERELVAAITSSSGRRWYADSVKGRFTISADNSKNTAYLQMNSLKPEDTAVYYCAARRIVNVEGAYRDWGQGTLVTVSS
# B25: NRP1-112 (VHH)
# VHH: EVQLVESGGGLVQPGGSLRLSCAASGNIFINNAMGWFRQAPGKERELVAAITSSSGRRWYADSVKGRFTISADNSKNTAYLQMNSLKPEDTAVYYCAAYQRGWGDWGQGTLVTVSS
# B26: NRP1-113 (VHH)
# VHH: EVQLVESGGGLVQPGGSLRLSCAASGHTFRGDVMGWFRQAPGKEREFVASISGSGTRTLYADSVKGRFTISADNSKNTAYLQMNSLKPEDTAVYYCARDVEGGWYGLSYGMDVWGQGTLVTVSS
# B27: NRP1-120 (antibody, IgG2, V domains shown)
# VH: EVQLLESGGGLVQPGGSLRLSCAASGFTFKSYGMHWVRQAPGKGLEWVSEISPSGKKKYYADSVKGRFTISRDNSKNTLYLQMNSLRAEDTAVYYCAAPNDQSAAFDYWGQGTLVTVSS
# VL: DIQMTQSPSSLSASVGDRVTITCKASDHIGKFLTWYQQKPGKAPKLLIYPKHNRPPGVPSRFSGSGSGTDFTLTISSLQPEDFATYYCQQSYDNPLTFGQGTKVEIK
# B28: NRP1-124 (antibody, IgG2, V domains shown)
# VH: EVQLLESGGGLVQPGGSLRLSCAASGFDFSDYEMSWVRQAPGKGLEWVSRISVAGRRTAYADSVKGRFTISRDNSKNTLYLQMNSLRAEDTAVYYCAKGRRKLRATRFDYWGQGTLVTVSS
# VL: DIQMTQSPSSLSASVGDRVTITCSGDKLRNKYASWYQQKPGKAPKLLIYETSKLASGVPSRFSGSGSGTDFTLTISSLQPEDFATYYCQQSFSVPAFGQGTKVEIK
# B29: NRP1-127 (antibody, IgG2, V domains shown)
# VH: EVQLLESGGGLVQPGGSLRLSCAASGFTFSNYGVSWVRQAPGKGLEWVSYISSSGSSTYYADSVKGRFTISRDNSKNTLYLQMNSLRAEDTAVYYCAKGARRFDYWGQGTLVTVSS
# VL: DIQMTQSPSSLSASVGDRVTITCRASHNINSYLNWYQQKPGKAPKLLIYGKKNRPSGVPSRFSGSGSGTDFTLTISSLQPEDFATYYCGQSYRYPLTFGQGTKVEIK
# B30: NRP1-10 (VHH)
# VHH: EVQLVESGGGLVQPGGSLRLSCAASGFTFSMWPMGWFRQAPGKEREFVARITGGGSTIWSRGDTYYADSVKGRFTISADNSKNTAYLQMNSLKPEDTAVYYCARADYYDSSAFDYWGQGTLVTVSS
# B31: NRP1-136 (antibody, IgG2, V domains shown)
# VH: EVQLLESGGGLVQPGGSLRLSCAASGFTFKDYGMNWVRQAPGKGLEWVSVISGSGGRPNYADSVKGRFTISRDNSKNTLYLQMNSLRAEDTAVYYCARVWRNHLDYWGQGTLVTVSS
# VL: DIQMTQSPSSLSASVGDRVTITCSGDRLGEKYVSWYQQKPGKAPKLLIYGKKNRPSGVPSRFSGSGSGTDFTLTISSLQPEDFATYYCQAWASSTVVFGQGTKVEIK
# B32: NRP1-137 (antibody, IgG2, V domains shown)
# VH: EVQLLESGGGLVQPGGSLRLSCAASGFTFSRYAMNWVRQAPGKGLEWVSTISSGGGYTYYPDSVKGRFTISRDNSKNTLYLQMNSLRAEDTAVYYCARSYGGGFDYWGQGTLVTVSS
# VL: B27 VL with K24Q, D27Q, H28S, G30S, K31S, F32Y, T34A, D93K, N94S
# Biological target: T1, neuropilin-1 (NRP1) on HEK293 cells overexpressing NRP1 (UniProt O14786 22-923, limits assumed)
# T1 construct: whole, on cells
# Assay: flow cytometry, HEK293-NRP1 vs HEK293
row,Binder,100 nM FACS (MFI Ratio)
1,B1,3.7
2,B2,2.8
3,B3,1.8
4,B4,1
5,B5,1960
6,B6,6.1
7,B7,2.7
8,B8,6
9,B9,1.4
10,B10,2.8
11,B11,5.9
12,B12,6.6
13,B13,1.5
14,B14,1.7
15,B15,1.2
16,B16,2.4

row,Binder,100 nM FACS (MFI Ratio)
1,B17,2.5
2,B18,6.2
3,B19,6.2
4,B20,2.8
5,B21,0.9
6,B22,2.1
7,B23,3.3
8,B24,0.7
9,B25,0.7
10,B26,0.4
11,B27,5.2
12,B28,1200
13,B29,2.1
14,B30,19.6
15,B31,128
16,B32,1200
